In US20250076311A1 (Chugai, published 2025):
Positions count from the first letter of the chain named.

Columns and labels:
Mouse latent myostatin = target: T1, Mouse latent myostatin (mouse, UniProt O08689 26-267; O08689 268-376, limits assumed); assay: SPR (Biacore T200), 37C, pH 7.4, antibody captured on ProA/G
T1 sequence 1: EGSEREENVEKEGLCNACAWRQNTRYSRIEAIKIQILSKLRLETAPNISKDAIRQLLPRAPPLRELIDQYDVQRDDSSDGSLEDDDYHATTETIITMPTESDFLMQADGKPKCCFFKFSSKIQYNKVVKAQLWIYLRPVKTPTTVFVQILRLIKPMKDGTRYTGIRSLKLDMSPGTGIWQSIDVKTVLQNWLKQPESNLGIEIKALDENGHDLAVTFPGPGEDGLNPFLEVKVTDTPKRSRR
T1 sequence 2: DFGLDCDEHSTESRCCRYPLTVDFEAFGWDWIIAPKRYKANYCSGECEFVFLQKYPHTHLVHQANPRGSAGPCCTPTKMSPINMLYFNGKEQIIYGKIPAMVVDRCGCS
Procedure: ProA/G (Pierce) was immobilized onto all flow cells of a CM4 chip using an amine coupling kit (GE Healthcare). All antibodies and analytes were prepared in ACES pH7.4 or pH5.8 buffer containing 20 mM ACES, 150 mM NaCl, 1.2 mM CaCl₂, 0.05% TWEEN® 20, 0.005% NaN3. […] The sensor surface was regenerated each cycle with 10 mM Glycine HCl pH1.5. Binding affinity was determined by processing and fitting the data to a 1:1 binding model using BIACORE® T200 Evaluation software, version 2.0 (GE Healthcare).

[1] = target: T2, cynomolgus monkey FcγRIIa3 extracellular domain, His-tagged (cynomolgus monkey); assay: SPR (BIACORE); KD of SG1 divided by KD of the variant
T2 construct: also called cyno FcgRIIa3; cynoFcγRIIa3; not shown: His-tag added to the C-terminus
T2 chain: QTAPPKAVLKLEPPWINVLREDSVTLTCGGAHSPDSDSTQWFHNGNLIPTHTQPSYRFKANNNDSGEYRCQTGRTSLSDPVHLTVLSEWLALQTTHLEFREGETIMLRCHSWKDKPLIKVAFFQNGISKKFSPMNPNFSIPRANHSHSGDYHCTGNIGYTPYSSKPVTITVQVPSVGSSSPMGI
Procedure: (§1) The kinetic analysis of interactions between these antibodies and FcγR was carried out using BIACORE® T200 or BIACORE® 4000 (GE Healthcare). HBS-EP+ (GE Healthcare) was used as the running buffer, and the measurement temperature was set to 25° C. […] After the measurement, the antibody captured on the chip was washed off by allowing reaction with 10 mM glycine-HCl, pH1.5 and 25 mM NaOH so that the chip was regenerated and used repeatedly. The sensorgrams obtained as measurement results were analyzed by the 1:1 Langmuir binding model using the BIACORE® Evaluation Software to calculate the binding rate constant ka (L/mol/s) and dissociation rate constant kd (1/s), and the dissociation constant KD (mol/L) was calculated from these values. […] Regarding such interactions, KD values were calculated using the following 1:1 binding model described in BIACORE® T100 Software Handbook BR1006-48 Edition AE.

[2] = target: T3, human FcγRIIaH extracellular domain, His-tagged (human, UniProt P12318 34-217); assay: as above
T3 construct: also called human FcgRIIaH; FcγRIIa (type H); not shown: His-tag added to the C-terminus
T3 sequence: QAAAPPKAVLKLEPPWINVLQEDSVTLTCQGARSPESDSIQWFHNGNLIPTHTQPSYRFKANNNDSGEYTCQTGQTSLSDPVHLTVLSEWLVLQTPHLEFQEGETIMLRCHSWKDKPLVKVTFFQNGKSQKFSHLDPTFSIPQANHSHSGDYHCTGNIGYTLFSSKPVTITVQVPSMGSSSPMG
Procedure: as §1

[3] = target: T4, human FcγRIIaR extracellular domain, His-tagged (human, UniProt P12318 34-217); assay: as above
T4 construct: also called human FcgRIIaR; FcγRIIa (type R); not shown: His-tag added to the C-terminus
T4 chain: T3 sequence with H134R
Procedure: as §1

[4] = target: T5, cynomolgus monkey FcγRIIIaS extracellular domain, His-tagged (cynomolgus monkey, UniProt A3RFZ7 21-206 (rhesus entry)); assay: SPR (BIACORE), antibody captured on chip, soluble FcgR as analyte, 25 C
T5 construct: also called cyno FcgRIIIaS; cynoFcγRIIIaS; not shown: His-tag added to the C-terminus
T5 sequence (A3RFZ7 21-206): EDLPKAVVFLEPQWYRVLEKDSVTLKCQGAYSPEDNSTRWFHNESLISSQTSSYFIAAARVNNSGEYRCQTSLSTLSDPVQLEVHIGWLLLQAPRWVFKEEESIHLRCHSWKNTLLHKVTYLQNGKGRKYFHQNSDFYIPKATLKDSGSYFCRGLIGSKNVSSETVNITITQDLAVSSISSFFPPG
Procedure: as §1

[5] = target: T6, human FcγRIIIaV extracellular domain, His-tagged (human, UniProt P08637 17-208); assay: as above
T6 construct: also called human FcgRIIIaV; not shown: His-tag added to the C-terminus
T6 sequence (P08637 17-208 F176V): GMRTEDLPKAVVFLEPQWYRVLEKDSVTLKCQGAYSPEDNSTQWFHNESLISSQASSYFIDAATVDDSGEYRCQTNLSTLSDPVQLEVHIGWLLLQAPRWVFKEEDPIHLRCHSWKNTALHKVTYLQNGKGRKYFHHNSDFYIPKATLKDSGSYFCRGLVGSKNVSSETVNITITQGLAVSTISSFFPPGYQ
Procedure: as §1

[6] = target: T7, cynomolgus monkey FcγRIIb extracellular domain with C-terminal His-tag (cynomolgus monkey); assay: SPR (Biacore), antibody captured, FcgR analyte
T7 construct: also called cyno FcgRIIb; cynoFcγRIIb
T7 chain: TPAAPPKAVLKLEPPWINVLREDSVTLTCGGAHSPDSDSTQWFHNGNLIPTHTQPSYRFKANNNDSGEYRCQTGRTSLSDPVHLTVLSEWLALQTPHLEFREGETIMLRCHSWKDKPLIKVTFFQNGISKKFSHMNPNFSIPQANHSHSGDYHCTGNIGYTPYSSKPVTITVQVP

[7] = target: T8, cynomolgus monkey FcγRIIa1 extracellular domain, His-tagged (cynomolgus monkey); assay: SPR (BIACORE); KD of SG1 divided by KD of the variant
T8 construct: also called cyno FcgRIIa1; cynoFcγRIIa1; not shown: His-tag added to the C-terminus
T8 chain: T2 chain with T95P, A121T, S128A, P133H, N135D
Procedure: as §1

[8] = target: T3, human FcγRIIaH extracellular domain, …; assay: SPR (BIACORE), antibody captured on chip, soluble FcgR as analyte, 25 C
Procedure: as §1

[9] = target: T9, cynomolgus monkey FcγRIIb extracellular domain, His-tagged (cynomolgus monkey); assay: as above
T9 construct: also called cyno FcgRIIb; cynoFcγRIIb; not shown: His-tag added to the C-terminus
T9 chain: T7 chain
Procedure: as §1

[10] = target: T10, human FcγRIIb extracellular domain, His-tagged (human, UniProt P31994 43-217); assay: as above
T10 construct: also called human FcgRIIb; not shown: His-tag added to the C-terminus
T10 sequence: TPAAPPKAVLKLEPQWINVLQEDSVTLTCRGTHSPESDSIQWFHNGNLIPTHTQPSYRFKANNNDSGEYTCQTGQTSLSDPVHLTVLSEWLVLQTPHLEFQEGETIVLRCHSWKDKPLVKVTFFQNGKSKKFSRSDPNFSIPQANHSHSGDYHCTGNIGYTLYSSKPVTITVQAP
Procedure: as §1

[11] = target: T6, human FcγRIIIaV extracellular domain, …; assay: SPR (BIACORE); KD of SG1 divided by KD of the variant
Procedure: as §1

[12] = target: T2, cynomolgus monkey FcγRIIa3 …; assay: SPR (BIACORE), antibody captured on chip, soluble FcgR as analyte, 25 C
Procedure: as §1

[13] = target: T5, cynomolgus monkey FcγRIIIaS …; assay: SPR (BIACORE); KD of SG1 divided by KD of the variant
Procedure: as §1

[14] = target: T10, human FcγRIIb extracellular domain, …; assay: as above
Procedure: as §1

[15] = target: T8, cynomolgus monkey FcγRIIa1 …; assay: SPR (BIACORE), antibody captured on chip, soluble FcgR as analyte, 25 C
Procedure: as §1

B1: MS1032LO10-SG1 (antibody, human IgG1, kappa, V domains shown)
VH: QVTLKESGPVLVKPTETLTLTCTVSGIDLSHTDISWVRQAPGKGLEWVGIISYAGKTYYASWAKKRLTISKDTSKNQVVLTMTNMDPVDTATYYCARGVPAYSHGGDLWGQGTLVTVSS
VL: DIVMTQSPATLSLSPGERATLSCTSSQSVYHANWLSWFQQKPGQPPKLLIYWASTLAYGVPSRFSGSGSGTDFTLTISSLQPEDAATYYCAGGYGGGRYAFGQGTKVEIKR
B1 showed a Kd (Mouse latent myostatin) of 0.314 nM.

B2: M103205H795-MY260/M103202L889-SK1 (antibody)
heavy: QVTLKESGPVLVKPTETLTLTCTVSGIDLSHDDISWVRQAPGKGLEWVGIISYAGSTYYASWAKGRLTISKDTSKNQVVLTMTNMDPVDTATYYCARGVPAYSHGGDLWGQGTLVTVSSASTKGPSVFPLAPSSKSTSGGTAALGCLVKDYFPEPVTVSWNSGALTSGVHTFPAVLQSSGLYSLSSVVTVPSSSLGTQTYICNVNHKPSNTKVDKKVEPKSCDKTHTCPPCPAPELLMGPSVFLFPPKPKDTLMISRTPEVTCVVVDVSDEDPEVKFNWYVDGVEVHNAKTKPREEQYNSTYRVVSVLTVLHQDWLNGKEYKCKVSNKALPKPIEKTISKAKGQPREPQVYTLPPSREEMTKNQVSLTCLVKGFYPSDIAVEWESNGQPENNYKTTPPVLDSDGSFFLYSKLTVDKSRWQQGNVFSCSVMHEALHNHYTQKSLSLSP
light: DIVMTQSPATLSLSPGERATLSCTSSQSVYHANWLSWFQQKPGQPPKLLIYWASTLAYGVPSRFSGSGSGTDFTLTISSLQPEDAATYYCAGGYGGGRYAFGQGTKVEIKRTVAAPSVFIFPPSDEQLKSGTASVVCLLNNFYPREAKVQWKVDNALQSGNSQESVTEQDSKDSTYSLSSTLTLSKADYEKHKVYACEVTHQGLSSPVTKSFNRGEC
With B2 the “KD fold (SG1 = 1)” value [1] was 1.7 fold, the “KD fold (SG1 = 1)” value [2] was 0.7 fold and the “KD fold (SG1 = 1)” value [3] was 0.5 fold. It also gave a Kd [4] of 850 nM and a Kd [5] of 30 µM.

B3: M103205H795-MY476/M103202L889-SK1 (antibody)
chain 1: B2 heavy with A233Y, M238T
chain 2: B2 light
Work on B3 yielded a Kd [6] of 390 nM.

B4: M103205H795-MY264/M103202L889-SK1 (antibody, human IgG1, kappa, name in EU numbering)
heavy: B2 heavy with M238L
light: B2 light
notes: Asn at EU 236 of MY201 replaced with Leu
In the case of B4, the “KD fold (SG1 = 1)” value [1] is reported as 2.1 fold, the “KD fold (SG1 = 1)” value [7] is reported as 0.8 fold and the Kd [8] is reported as 150 nM. The Kd [9] was 260 nM and the Kd [10] was 22 µM.

B5: M103205H795-MY263/M103202L889-SK1 (antibody, human IgG1, kappa, name in EU numbering)
heavy: B2 heavy with M238Q
light: B2 light
notes: Asn at EU 236 of MY201 replaced with Gln
With B5 the “KD fold (SG1 = 1)” value [11] was 0.39 fold and the Kd [12] was 73 µM.

B6: M103205H795-MY262/M103202L889-SK1 (antibody, human IgG1, kappa, name in EU numbering)
heavy: B2 heavy with M238V
light: B2 light
notes: Asn at EU 236 of MY201 replaced with Val
For B6, the “KD fold (SG1 = 1)” value [13] was 0.35 fold, the “KD fold (SG1 = 1)” value [14] was 0.3 fold and the Kd [12] was 80 µM. The Kd [15] was 1500 nM.
